Substitutions are numbered along the chain they refer to. Like-named read-outs stand apart in the source and are kept apart here.
Legend:
[1] = biological target: T1, LTC4 synthase (Homo sapiens, UniProt Q16873); test: Dose-response assay using MK886: conversion of LTA4-ME to LTC4-ME by lysates of transfected COS-7 cells; assay type: biochemical
T1 construct: expressed in transfected cells; host or cells: COS-7 cells (pcDNA3 clone from KG-1 library), cell lysate
T1 sequence (Q16873 1-150): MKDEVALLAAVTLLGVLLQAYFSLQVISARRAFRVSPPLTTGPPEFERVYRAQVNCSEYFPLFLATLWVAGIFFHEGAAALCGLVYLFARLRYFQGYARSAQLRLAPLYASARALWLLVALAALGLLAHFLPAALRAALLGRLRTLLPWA
Experimental: After 2.8 min more, solvent B was increased linearly to 90% over 2 min and was maintained at this level for an additional 10 min. UV absorbance at 280 nm and the UV spectra were recorded simultaneously. The retention times for PGB2 and LTC4-ME were 8.5 and 10.1 min, respectively.
DOSE-RESPONSE ASSAY USING MK886: Cell lysates of the COS-7 cell transfectant containing SEQ ID NO.:1 were incubated with 20 micromolar LTA4-ME, 20 mM GSH, 5 mM MgCl2 in HEPES buffer (pH 7.6), in the presence of 0-10 micromolar MK886 for 10 minutes at room temperature. Reactions were stopped by addition of 2 volumes of methanol containing 200 ng PGB2. Samples were analyzed by RP-HPLC.

[2] = biological target: T1, LTC4 synthase; details: high doses; Lam et al.; cited from earlier work
[3] = tested on: LTC4 synthase; test: Enzyme kinetics of purified recombinant wild-type or mutant LTC4 synthase; assay type: biochemical, human; details: purified recombinant enzyme
Experimental: (§1) PURIFICATION AND KINETIC ANALYSIS OF SELECTED EXPRESSED PROTEINS: Recombinant LTC4 synthases were purified by S-hexyl GSH agarose affinity chromatography (Lam et al., Eur. J. Biochem., 238:606, 1996). Solubilized microsomes were loaded onto a 2.5-cm×1.5-cm open bed of S-hexyl GSH resin equilibrated with 50 mM HEPES, 1 mM EDTA, 5 mM β-mercaptoethanol, 0.1% Triton X-102, 10% glycerol, pH 7.6 (Buffer A) at 4° C. The column was washed sequentially with 5 volumes each of buffer A/0.3 M NaCl/20 mM GSH/0.1% DOC, buffer A/2.5 mM S-hexyl GSH/2.5 mM S-octyl GSH/0.1% DOC, and buffer A/0.1% DOC; and the enzyme was eluted with 5 fractions of 1 volume each of 15 mM probenecid in buffer A containing 0.1% DOC. The enzyme was purified nearly to homogeneity as determined by the presence in silver stained SDS-PAGE gels of a predominant 18-kDa protein band with a minor 34-kDa band; only the 18-kDa band interacted with anti-LTC4 synthase antibody on immunoblot analysis. After sequential concentration and dilution with a Microsep 10K centrifugal concentrator (Filtron Technology Corp., Northborough, Mass.) to remove probenecid, the protein concentration was estimated by staining a SDS-PAGE gel of the purified enzyme and a standard amount of lysozyme resolved in the same gel with Coomassie blue dye and comparing their intensities.
(§2) To examine the enzyme kinetics of recombinant wild-type or mutant LTC4 synthase, 3-100 ng portions of purified enzyme were incubated in 200 μl of HEPES buffer, pH 7.6, containing 10 mM MgC'2 with either 20 μM LTA4-ME and various concentration of GSH or with 10 mM GSH and various concentrations of LTA4-ME for 2 min at room temperature. The reactions were terminated by the addition of 3 vol of methanol containing 200 ng PGB2. Samples were then analyzed for LTC4-ME by RP-HPLC.

[4] = tested on: LTC4 synthase; test: Conjugation of LTA4-ME with GSH by solubilized microsomes of COS cells transfected with wild-type or mutant LTC4 synthase; details: for Function / Km: COS cell microsome; for conjugation function of transfected COS cell microsomes: compared to wild-type construct
Experimental: OF THE EXPRESSED PROTEINS: COS-7 cells were transfected with either wild-type LTC4 synthase cDNA or the mutated LTC4 synthase cDNA by DEAE-dextran transfection (Lam et al., Proc. Natl. Acad. Sci. USA., 91:7663, 1994). Three days after transfection, the cells were harvested by treatment with trypsin and suspended in microsomal buffer (50 mM HEPES buffer pH 7.9 containing 2 mM EDTA and 10 mM β-mercaptoethanol) at a concentration of 5×10^6 cells/ml. The cells were lysed by sonication with a Branson microtip sonicator (Danbury, Conn.) at a setting of 7. Cell lysates were centrifuged at 100,000×g for 60 min at 4° C., and the pellets (microsomes) were resuspended in microsomal buffer and were solubilized by the addition of 0.4% Triton X-102, 0.4% sodium deoxycholate (DOC), and 10% glycerol and stirring at 4° C. for 45 min.
The function of each mutant enzyme as well as the wild-type enzyme was first screened by the incubation of 1-10 μl of solubilized COS cell microsomes with 10 mM GSH and 20 μM LTA4-ME in 200 μl 50 mM HEPES buffer containing 10 mM MgCl2, pH 7.6. The reactions were carried out at room temperature for 10 min and stopped by the addition of 3 vol methanol containing 200 ng prostaglandin B2 (PGB2) as an internal standard. LTC4-ME levels in the samples were determined with high performance liquid chromatography (HPLC).
Reverse phase (RP)-HPLC was carried out with a model 126 dual pump system and model 167 scanning UV detector (Beckman Instruments) controlled by an Gateway 2000 P4D66 computer equipped with Beckman System Gold software. Samples were applied to a 5-μm 4.6×250-mm C18 Ultrasphere reverse phase column (Beckman Instruments) equilibrated with a solvent of methanol/acetonitrile/water/acetic acid (10:15:100:0.2, v/v), pH 6.0 (solvent A). Immediately after the sample was injected, the column was eluted at a flow rate of 1 ml/min with a programmed concave gradient (System Cold curve 6) to 20% solvent A and 80% solvent B (pure methanol) over 0.2 min with continuation isocratically for 5.8 min. Beginning at 6 min, solvent B was increased linearly to 100% over 0.2 min and was maintained at this level for 7 min more. The ultraviolet absorbance at 280 nm and the ultraviolet spectra were recorded simultaneously. The retention times for PGB2 and LTC4-ME were 7.4 and 8.9 min, respectively. LTC4-ME was quantitated by calculating the ratio of the peak area to the area of the internal standard PGB2.

[5] = Binding of mutant protein to S-hexyl GSH agarose column; details: eluted with probenecid
Experimental: as §1

[6] = biological target: T2, LTC4 synthase (Homo sapiens, UniProt Q16873, Y93F); test: Enzyme kinetics of purified recombinant wild-type or mutant LTC4 synthase; assay type: biochemical
T2 construct: made in house; host or cells: COS-7 cells
T2 sequence (Q16873 1-150 Y93F): T1 sequence (Q16873 1-150) with Y93F
Experimental: as §1, §2

[7] = biological target: T2, LTC4 synthase; test: Effect of pH on enzymatic conjugation by wild-type and mutant enzyme; assay type: biochemical; details: microsomal assay, 5-fold more Y93F
Experimental: The study the effect of pH on enzymatic conjugation by wild-type and mutant enzyme, 1-μl or 5-μl (Y93F) samples of solubilized COS cell microsomes were incubated with 10 μM LTA4-ME and 10 mM GSH in bis-Tris propane buffer containing 10 mM MgCl2 at various pH levels. The reactions were carried out at room temperature for 2 min and were stopped by the addition of 3 vol of methanol and 10 μl of acetic acid. Product generation was quantitated by RP-HPLC as described above.

| Molecule | Vmax LTC4-ME [3] | Km ([3]; read-out: Km GSH) [µM] | Km ([3]; read-out: Km LTA4-ME) [µM] | Function [4] | conjugation function of transfected COS cell microsomes [4] | Km ([4]; read-out: Km GSH) [µM] | Km ([4]; read-out: Km LTA4-ME) [µM] | other results |
| --- | --- | --- | --- | --- | --- | --- | --- | --- |
| C[C@H](C#Cc1ccc(Oc2ccc(F)cc2)o1)N(O)C(N)=O [A79175] |  |  |  |  |  |  |  | effect on LTC4 synthase activity in COS cell lysates ([1]; at a concentration of 10 μM): did not affect LTC4 synthase activity |
| CC(C)c1ccc2c(c1)c(SC(C)(C)C)c(CC(C)(C)C(=O)O)n2Cc1ccc(Cl)cc1 [MK-886] |  |  |  |  |  |  |  | IC50 ([1]; 20 μM LTA4-ME, COS cell lysates, read-out: IC50, inhibition of conversion of LTA4-ME to LTC4-ME): < 3000 nM; inhibition of enzyme activity ([1]; at 10 μM): more than 90%; IC50 ([1]; transfected COS cell lysates, read-out: ID50, inhibition of LTC4 synthase activity): ~3000 nM; inhibition of LTC4 synthase activity [2]: could also inhibit LTC4 synthase activity when administered at high doses |
| C82V: LTC4 synthase point mutant | 37.7 µmol/min/mg | 900 | 6.3 | 100 % of WT | do not affect conjugation function | 2000 | 10.9 | conjugation function of transfected COS cell microsomes ([4]; listed as C82 to V82): None of the mutations affected conjugation function |
| R51H | 20.0 µmol/min/mg | 1500 | 6.3 | 100 % of WT | activity was not diminished | 3800 | 6.4 |  |
| R51T: LTC4 synthase point mutant | Inactive |  |  | 0 % of WT | do not show conjugation activity |  |  | binding to S-hexyl GSH agarose column [5]: bound to S-hexyl GSH; conjugation function of transfected COS cell microsomes ([4]; listed as Arg 51 to threonine): abolished the functional activity |
| WT: recombinant wild-type human LTC4 synthase (SEQ ID NO.:2) | 51.3 µmol/min/mg | 1400 | 7.4 | 100 % of WT |  | 500 to 2000 | 6 to 20 |  |
| Y93F: LTC4 synthase point mutant | 1.4 µmol/min/mg | 9900 | 5.4 | 5 % of WT | associated with a reduction in function | 10000 | 20 | reduction in Vmax ([6]; isolated recombinant enzyme, versus wild type): greater than 90%; catalytic efficiency relative to wild-type enzyme ([6]; purified recombinant enzyme): 1/260; pH optimum of conjugation [7]: A shift in the optimum to a higher pH |

Reference: patent US6576753B1, “DNA encoding human leukotriene C4 synthase” (The Brigham and Women's Hospital, Inc., priority 1994, dated 2003)
